Reference: patent publication US20230365662A1
Several values for one entry are separate records, joined by “and”; a condition that tells them apart may be missing. Equal entries are not always repeated.

Target: HRgpA-6H (Porphyromonas gingivalis) (UniProt P28784)
Experiment: ELISA, FASEBA Fab on coated HRgpA-6H

Chain of UniProt P28784 (P28784 228-991): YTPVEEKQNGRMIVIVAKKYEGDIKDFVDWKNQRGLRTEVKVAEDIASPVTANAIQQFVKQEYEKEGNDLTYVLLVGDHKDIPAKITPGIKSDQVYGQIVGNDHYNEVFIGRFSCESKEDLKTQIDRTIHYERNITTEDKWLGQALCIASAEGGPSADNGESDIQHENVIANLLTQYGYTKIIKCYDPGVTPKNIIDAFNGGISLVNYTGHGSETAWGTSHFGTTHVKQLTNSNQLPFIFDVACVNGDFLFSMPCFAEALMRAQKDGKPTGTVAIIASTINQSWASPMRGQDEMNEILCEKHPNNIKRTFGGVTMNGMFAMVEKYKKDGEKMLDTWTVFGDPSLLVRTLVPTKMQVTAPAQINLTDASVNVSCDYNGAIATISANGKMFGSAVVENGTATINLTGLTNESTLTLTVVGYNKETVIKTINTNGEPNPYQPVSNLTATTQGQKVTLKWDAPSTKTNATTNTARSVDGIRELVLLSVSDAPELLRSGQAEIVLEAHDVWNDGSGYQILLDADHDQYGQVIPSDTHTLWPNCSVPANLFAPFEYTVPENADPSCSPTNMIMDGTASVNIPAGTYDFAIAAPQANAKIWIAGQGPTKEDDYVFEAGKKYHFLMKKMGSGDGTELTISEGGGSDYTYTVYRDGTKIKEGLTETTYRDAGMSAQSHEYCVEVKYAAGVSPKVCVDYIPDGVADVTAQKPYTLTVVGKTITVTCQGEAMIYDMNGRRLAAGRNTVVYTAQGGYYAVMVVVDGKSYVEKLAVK

Row | Binder | OD450nm | Ratio OD(Variant)/OD(WT)
1 | KB001 mouse Fab VL T24M (Fab, V domains shown) VH: EVQLKQSGPGLVAPSQSLSITCTVSGFSLSIYSVHWVRQPPGKGLEWLGMIWGGGSSDYNSALKSRLSISKDNSKSQVFLKMNSLQTDDTAMYYCARNGNFYAMDYWGQGTSVTVSS VL: QIVLTQSPAIMSASLGERVTMTCMASSSVSSSFLHWYQQKPGSSPQLWIYSTSNLASGVPARFSGSGSGTSYSLTISSMEAEDAATYYCHQYHHSPYIYTFGGGTKLEIK | 0.797 and 0.75 | 1.04 and 0.975
2 | KB001 mouse Fab VL T24H (Fab, V domains shown) VH: EVQLKQSGPGLVAPSQSLSITCTVSGFSLSIYSVHWVRQPPGKGLEWLGMIWGGGSSDYNSALKSRLSISKDNSKSQVFLKMNSLQTDDTAMYYCARNGNFYAMDYWGQGTSVTVSS VL: QIVLTQSPAIMSASLGERVTMTCHASSSVSSSFLHWYQQKPGSSPQLWIYSTSNLASGVPARFSGSGSGTSYSLTISSMEAEDAATYYCHQYHHSPYIYTFGGGTKLEIK | 0.795 | 1.03
3 | KB001 mouse Fab VL S28P (Fab, V domains shown) VH: EVQLKQSGPGLVAPSQSLSITCTVSGFSLSIYSVHWVRQPPGKGLEWLGMIWGGGSSDYNSALKSRLSISKDNSKSQVFLKMNSLQTDDTAMYYCARNGNFYAMDYWGQGTSVTVSS VL: QIVLTQSPAIMSASLGERVTMTCTASSPVSSSFLHWYQQKPGSSPQLWIYSTSNLASGVPARFSGSGSGTSYSLTISSMEAEDAATYYCHQYHHSPYIYTFGGGTKLEIK | 0.808 and 0.726 | 1.08 and 0.967
4 | KB001 mouse Fab VL S26D (Fab, V domains shown) VH: EVQLKQSGPGLVAPSQSLSITCTVSGFSLSIYSVHWVRQPPGKGLEWLGMIWGGGSSDYNSALKSRLSISKDNSKSQVFLKMNSLQTDDTAMYYCARNGNFYAMDYWGQGTSVTVSS VL: QIVLTQSPAIMSASLGERVTMTCTADSSVSSSFLHWYQQKPGSSPQLWIYSTSNLASGVPARFSGSGSGTSYSLTISSMEAEDAATYYCHQYHHSPYIYTFGGGTKLEIK | 0.821 | 1.05
5 | KB001 mouse Fab VL S31E (Fab, V domains shown) VH: EVQLKQSGPGLVAPSQSLSITCTVSGFSLSIYSVHWVRQPPGKGLEWLGMIWGGGSSDYNSALKSRLSISKDNSKSQVFLKMNSLQTDDTAMYYCARNGNFYAMDYWGQGTSVTVSS VL: QIVLTQSPAIMSASLGERVTMTCTASSSVSESFLHWYQQKPGSSPQLWIYSTSNLASGVPARFSGSGSGTSYSLTISSMEAEDAATYYCHQYHHSPYIYTFGGGTKLEIK | 0.903 and 0.798 | 1.07 and 0.944
6 | KB001 mouse Fab VL S28K (Fab, V domains shown) VH: EVQLKQSGPGLVAPSQSLSITCTVSGFSLSIYSVHWVRQPPGKGLEWLGMIWGGGSSDYNSALKSRLSISKDNSKSQVFLKMNSLQTDDTAMYYCARNGNFYAMDYWGQGTSVTVSS VL: QIVLTQSPAIMSASLGERVTMTCTASSKVSSSFLHWYQQKPGSSPQLWIYSTSNLASGVPARFSGSGSGTSYSLTISSMEAEDAATYYCHQYHHSPYIYTFGGGTKLEIK | 0.801 | 1.07
7 | KB001 mouse Fab VL A25F (Fab, V domains shown) VH: EVQLKQSGPGLVAPSQSLSITCTVSGFSLSIYSVHWVRQPPGKGLEWLGMIWGGGSSDYNSALKSRLSISKDNSKSQVFLKMNSLQTDDTAMYYCARNGNFYAMDYWGQGTSVTVSS VL: QIVLTQSPAIMSASLGERVTMTCTFSSSVSSSFLHWYQQKPGSSPQLWIYSTSNLASGVPARFSGSGSGTSYSLTISSMEAEDAATYYCHQYHHSPYIYTFGGGTKLEIK | 0.818 and 0.827 and 0.775 | 1.04 and 1.06 and 0.99
8 | KB001 mouse Fab VL S31Y (Fab, V domains shown) VH: EVQLKQSGPGLVAPSQSLSITCTVSGFSLSIYSVHWVRQPPGKGLEWLGMIWGGGSSDYNSALKSRLSISKDNSKSQVFLKMNSLQTDDTAMYYCARNGNFYAMDYWGQGTSVTVSS VL: QIVLTQSPAIMSASLGERVTMTCTASSSVSYSFLHWYQQKPGSSPQLWIYSTSNLASGVPARFSGSGSGTSYSLTISSMEAEDAATYYCHQYHHSPYIYTFGGGTKLEIK | 0.849 | 1
9 | KB001 mouse Fab VL A25T (Fab, V domains shown) VH: EVQLKQSGPGLVAPSQSLSITCTVSGFSLSIYSVHWVRQPPGKGLEWLGMIWGGGSSDYNSALKSRLSISKDNSKSQVFLKMNSLQTDDTAMYYCARNGNFYAMDYWGQGTSVTVSS VL: QIVLTQSPAIMSASLGERVTMTCTTSSSVSSSFLHWYQQKPGSSPQLWIYSTSNLASGVPARFSGSGSGTSYSLTISSMEAEDAATYYCHQYHHSPYIYTFGGGTKLEIK | 0.823 and 0.801 | 1.05 and 1.02
10 | KB001 mouse Fab VL S27K (Fab, V domains shown) VH: EVQLKQSGPGLVAPSQSLSITCTVSGFSLSIYSVHWVRQPPGKGLEWLGMIWGGGSSDYNSALKSRLSISKDNSKSQVFLKMNSLQTDDTAMYYCARNGNFYAMDYWGQGTSVTVSS VL: QIVLTQSPAIMSASLGERVTMTCTASKSVSSSFLHWYQQKPGSSPQLWIYSTSNLASGVPARFSGSGSGTSYSLTISSMEAEDAATYYCHQYHHSPYIYTFGGGTKLEIK | 0.783 and 0.745 and 0.697 | 1.04 and 0.993 and 0.929
11 | KB001 mouse Fab VL S28G (Fab, V domains shown) VH: EVQLKQSGPGLVAPSQSLSITCTVSGFSLSIYSVHWVRQPPGKGLEWLGMIWGGGSSDYNSALKSRLSISKDNSKSQVFLKMNSLQTDDTAMYYCARNGNFYAMDYWGQGTSVTVSS VL: QIVLTQSPAIMSASLGERVTMTCTASSGVSSSFLHWYQQKPGSSPQLWIYSTSNLASGVPARFSGSGSGTSYSLTISSMEAEDAATYYCHQYHHSPYIYTFGGGTKLEIK | 0.818 | 1.09
12 | KB001 mouse Fab VL T24K (Fab, V domains shown) VH: EVQLKQSGPGLVAPSQSLSITCTVSGFSLSIYSVHWVRQPPGKGLEWLGMIWGGGSSDYNSALKSRLSISKDNSKSQVFLKMNSLQTDDTAMYYCARNGNFYAMDYWGQGTSVTVSS VL: QIVLTQSPAIMSASLGERVTMTCKASSSVSSSFLHWYQQKPGSSPQLWIYSTSNLASGVPARFSGSGSGTSYSLTISSMEAEDAATYYCHQYHHSPYIYTFGGGTKLEIK | 0.797 and 0.734 | 1.04 and 0.954
13 | KB001 mouse Fab VL S30F (Fab, V domains shown) VH: EVQLKQSGPGLVAPSQSLSITCTVSGFSLSIYSVHWVRQPPGKGLEWLGMIWGGGSSDYNSALKSRLSISKDNSKSQVFLKMNSLQTDDTAMYYCARNGNFYAMDYWGQGTSVTVSS VL: QIVLTQSPAIMSASLGERVTMTCTASSSVFSSFLHWYQQKPGSSPQLWIYSTSNLASGVPARFSGSGSGTSYSLTISSMEAEDAATYYCHQYHHSPYIYTFGGGTKLEIK | 0.911 | 1.06
14 | KB001 mouse Fab VL S30G (Fab, V domains shown) VH: EVQLKQSGPGLVAPSQSLSITCTVSGFSLSIYSVHWVRQPPGKGLEWLGMIWGGGSSDYNSALKSRLSISKDNSKSQVFLKMNSLQTDDTAMYYCARNGNFYAMDYWGQGTSVTVSS VL: QIVLTQSPAIMSASLGERVTMTCTASSSVGSSFLHWYQQKPGSSPQLWIYSTSNLASGVPARFSGSGSGTSYSLTISSMEAEDAATYYCHQYHHSPYIYTFGGGTKLEIK | 0.916 and 0.858 | 1.06 and 0.995
15 | KB001 mouse Fab VL S28V (Fab, V domains shown) VH: EVQLKQSGPGLVAPSQSLSITCTVSGFSLSIYSVHWVRQPPGKGLEWLGMIWGGGSSDYNSALKSRLSISKDNSKSQVFLKMNSLQTDDTAMYYCARNGNFYAMDYWGQGTSVTVSS VL: QIVLTQSPAIMSASLGERVTMTCTASSVVSSSFLHWYQQKPGSSPQLWIYSTSNLASGVPARFSGSGSGTSYSLTISSMEAEDAATYYCHQYHHSPYIYTFGGGTKLEIK | 0.786 and 0.731 and 0.717 | 1.05 and 0.974 and 0.955
16 | KB001 mouse Fab VL S31T (Fab, V domains shown) VH: EVQLKQSGPGLVAPSQSLSITCTVSGFSLSIYSVHWVRQPPGKGLEWLGMIWGGGSSDYNSALKSRLSISKDNSKSQVFLKMNSLQTDDTAMYYCARNGNFYAMDYWGQGTSVTVSS VL: QIVLTQSPAIMSASLGERVTMTCTASSSVSTSFLHWYQQKPGSSPQLWIYSTSNLASGVPARFSGSGSGTSYSLTISSMEAEDAATYYCHQYHHSPYIYTFGGGTKLEIK | 0.859 and 0.74 and 0.782 | 1.02 and 0.876 and 0.925
17 | KB001 mouse Fab VL S31F (Fab, V domains shown) VH: EVQLKQSGPGLVAPSQSLSITCTVSGFSLSIYSVHWVRQPPGKGLEWLGMIWGGGSSDYNSALKSRLSISKDNSKSQVFLKMNSLQTDDTAMYYCARNGNFYAMDYWGQGTSVTVSS VL: QIVLTQSPAIMSASLGERVTMTCTASSSVSFSFLHWYQQKPGSSPQLWIYSTSNLASGVPARFSGSGSGTSYSLTISSMEAEDAATYYCHQYHHSPYIYTFGGGTKLEIK | 0.854 and 0.688 and 0.693 | 1.01 and 0.814 and 0.82
18 | KB001 mouse Fab VL T24E (Fab, V domains shown) VH: EVQLKQSGPGLVAPSQSLSITCTVSGFSLSIYSVHWVRQPPGKGLEWLGMIWGGGSSDYNSALKSRLSISKDNSKSQVFLKMNSLQTDDTAMYYCARNGNFYAMDYWGQGTSVTVSS VL: QIVLTQSPAIMSASLGERVTMTCEASSSVSSSFLHWYQQKPGSSPQLWIYSTSNLASGVPARFSGSGSGTSYSLTISSMEAEDAATYYCHQYHHSPYIYTFGGGTKLEIK | 0.852 and 0.81 | 1.11 and 1.05
19 | KB001 mouse Fab VL S26N (Fab, V domains shown) VH: EVQLKQSGPGLVAPSQSLSITCTVSGFSLSIYSVHWVRQPPGKGLEWLGMIWGGGSSDYNSALKSRLSISKDNSKSQVFLKMNSLQTDDTAMYYCARNGNFYAMDYWGQGTSVTVSS VL: QIVLTQSPAIMSASLGERVTMTCTANSSVSSSFLHWYQQKPGSSPQLWIYSTSNLASGVPARFSGSGSGTSYSLTISSMEAEDAATYYCHQYHHSPYIYTFGGGTKLEIK | 0.823 and 0.749 | 1.05 and 0.957
20 | KB001 mouse Fab VL S31P (Fab, V domains shown) VH: EVQLKQSGPGLVAPSQSLSITCTVSGFSLSIYSVHWVRQPPGKGLEWLGMIWGGGSSDYNSALKSRLSISKDNSKSQVFLKMNSLQTDDTAMYYCARNGNFYAMDYWGQGTSVTVSS VL: QIVLTQSPAIMSASLGERVTMTCTASSSVSPSFLHWYQQKPGSSPQLWIYSTSNLASGVPARFSGSGSGTSYSLTISSMEAEDAATYYCHQYHHSPYIYTFGGGTKLEIK | 0.87 and 0.875 and 0.856 | 1.03 and 1.04 and 1.01
21 | KB001 mouse Fab VL S28W (Fab, V domains shown) VH: EVQLKQSGPGLVAPSQSLSITCTVSGFSLSIYSVHWVRQPPGKGLEWLGMIWGGGSSDYNSALKSRLSISKDNSKSQVFLKMNSLQTDDTAMYYCARNGNFYAMDYWGQGTSVTVSS VL: QIVLTQSPAIMSASLGERVTMTCTASSWVSSSFLHWYQQKPGSSPQLWIYSTSNLASGVPARFSGSGSGTSYSLTISSMEAEDAATYYCHQYHHSPYIYTFGGGTKLEIK | 0.817 and 0.745 | 1.09 and 0.993
